Source: publication PMC12090729
Read-outs that look alike come from different tables or passages of the source.

Experiments:
[1] = glycan lost
[2] = anti-ACE2 western blot, HEK293T lysates; settings: glycan lost; control: WT hACE2
[3] = confocal immunofluorescence, HeLa cells; settings: glycan lost; control: WT hACE2
[4] = flow cytometry, surface/total MFI ratio, HeLa; settings: glycan lost; control: WT hACE2
[5] = syncytia formation, GFP+ area, co-transfected HEK293T; settings: glycan lost; control: WT hACE2
[6] = qRT-PCR of viral N RNA, transfected HEK293T; settings: glycan lost; control: WT hACE2
[7] = VSVpp infection, BFP+ cells, HEK293T without TMPRSS2; settings: glycan lost; control: WT hACE2

For “hACE2 (angiotensin-converting enzyme 2): N90A”, the “other: susceptibility to genuine virus infection” value [1] was “no change”, the “other: susceptibility to genuine virus infection, fold_change” value [1] was “increases” and the “other: viral entry receptor function, fold_change” value [1] was “no change”. The expression_or_secretion [2] was “no change”, the localisation_or_trafficking [3] was “no change” and the localisation_or_trafficking [4] was “no change”.
In the case of “hACE2 (angiotensin-converting enzyme 2): N53A”, the “other: cell-cell fusion” value [1] is reported as “decreases”, the “other: viral entry receptor function, fold_change” value [1] is reported as “no change” and the expression_or_secretion [2] is reported as “no change”. The localisation_or_trafficking [3] was “no change”, the localisation_or_trafficking [4] was “no change” and the “other: cell-cell fusion” value [5] was “no change”.
In the case of “hACE2 (angiotensin-converting enzyme 2): N322A”, the “other: Camostat sensitivity of S-mediated entry” value [1] is reported as “decreases”, the “other: susceptibility to genuine virus infection” value [1] is reported as “increases” and the “other: viral entry receptor function, fold_change” value [1] is reported as “increases”. For the same substance, the “other: viral entry receptor function” value ([1]; control: WT hACE2) was “no change”, the expression_or_secretion [2] was “no change” and the localisation_or_trafficking [3] was “no change”. For the same substance, the “other: susceptibility to genuine virus infection” value [6] was “decreases”, the localisation_or_trafficking [4] was “no change” and the “other: viral entry receptor function” value [7] was “increases”.
In the case of “hACE2 (angiotensin-converting enzyme 2): N432A”, the “other: viral entry receptor function, fold_change” value [1] is reported as “no change”, the expression_or_secretion [2] is reported as “no change” and the localisation_or_trafficking [3] is reported as “no change”. The localisation_or_trafficking [4] was “no change”.
With “hACE2 (angiotensin-converting enzyme 2): N103A” the “other: viral entry receptor function, fold_change” value [1] was “no change”, the expression_or_secretion [2] was “no change” and the localisation_or_trafficking [3] was “no change”. The localisation_or_trafficking [4] was “no change”.
With “hACE2 (angiotensin-converting enzyme 2): T92I” the expression_or_secretion [2] was “no change”, the localisation_or_trafficking [3] was “no change” and the localisation_or_trafficking [4] was “no change”.
For “hACE2 (angiotensin-converting enzyme 2): N546A”, the “other: viral entry receptor function, fold_change” value [1] was “no change”, the expression_or_secretion [2] was “no change” and the localisation_or_trafficking [3] was “no change”. The localisation_or_trafficking [4] was “no change”.
With “hACE2 (angiotensin-converting enzyme 2): N690A” the “other: viral entry receptor function, fold_change” value [1] was “increases”, the expression_or_secretion [2] was “no change” and the localisation_or_trafficking [3] was “no change”. The “other: susceptibility to genuine virus infection” value [6] was “no change”, the “other: susceptibility to genuine virus infection, fold_change” value [6] was “no change” and the localisation_or_trafficking [4] was “no change”. The “other: viral entry receptor function” value [7] was “increases”.
